Publication PMC6849348, “Theranostic Application of a Novel G-Quadruplex-Forming DNA Aptamer Targeting Malate Synthase of Mycobacterium tuberculosis”

Tests used:
[1] = target: T1, malate synthase (MS, GlcB) (Mycobacterium tuberculosis, UniProt P9WK17 1-741); assay: ALISA; conditions: protein: recombinant; tags: C-terminal His6
[2] = target: T1, malate synthase (MS, GlcB); assay: SPR; conditions: protein: recombinant, tags: C-terminal His6
[3] = target: T1, malate synthase (MS, GlcB); assay: enzyme inhibition; glyoxylate, acetyl-CoA, 5 mM Mg2+; conditions: protein: recombinant, tags: C-terminal His6
[4] = target: T1, malate synthase (MS, GlcB); assay: enzyme inhibition (mixed); glyoxylate, acetyl-CoA, 5 mM Mg2+; conditions: protein: recombinant, tags: C-terminal His6
[5] = G4 parallel (CD, NMR), modeled as tetramer of 4 strands

T1 sequence (P9WK17 whole entry): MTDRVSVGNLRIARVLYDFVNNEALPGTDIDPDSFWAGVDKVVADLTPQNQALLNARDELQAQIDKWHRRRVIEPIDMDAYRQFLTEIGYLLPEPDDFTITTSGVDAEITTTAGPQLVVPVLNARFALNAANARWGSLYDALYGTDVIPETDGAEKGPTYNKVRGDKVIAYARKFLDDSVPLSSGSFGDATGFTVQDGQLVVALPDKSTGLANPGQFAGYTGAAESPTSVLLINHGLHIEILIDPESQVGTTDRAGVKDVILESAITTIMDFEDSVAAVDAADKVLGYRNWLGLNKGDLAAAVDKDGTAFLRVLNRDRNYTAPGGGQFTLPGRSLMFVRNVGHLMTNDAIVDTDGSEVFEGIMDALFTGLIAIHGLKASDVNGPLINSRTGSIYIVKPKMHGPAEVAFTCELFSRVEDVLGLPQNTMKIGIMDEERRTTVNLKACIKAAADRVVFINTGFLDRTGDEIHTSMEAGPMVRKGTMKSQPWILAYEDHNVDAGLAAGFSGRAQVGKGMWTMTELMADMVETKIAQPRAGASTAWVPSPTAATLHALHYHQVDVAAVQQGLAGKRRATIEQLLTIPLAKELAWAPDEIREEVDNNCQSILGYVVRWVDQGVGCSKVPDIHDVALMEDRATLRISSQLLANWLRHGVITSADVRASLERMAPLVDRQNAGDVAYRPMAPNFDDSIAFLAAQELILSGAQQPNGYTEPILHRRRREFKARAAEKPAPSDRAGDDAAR

B1: MS10-Trunc dT3 (structured_DNA)
DNA: GGGGTGGTGG
- binding result [1]: binds

B2: MS10-Trunc dT9 (structured_DNA)
DNA: GGTGGTGGGG
- binding result [1]: binds

B3: MS10-Trunc (structured_DNA)
DNA: GGTGGTGGTGG
- Kd [2, 5]: 0.019 nM
- IC50 [3, 5]: 251 nM
- Ki [4, 5]: 230 nM

B4: MS10 (structured_DNA)
DNA: GGTGTGTTGACTGAGGGGGTGGGGTGGGTGGTGGTGGATATAGC
- Kd ([2]; G4, parallel (CD)): 12 nM
- IC50 ([3]; G4, parallel (CD)): 276 nM
- Ki ([4]; G4, parallel (CD)): 270 nM
